Laboratory results taken from patent US10253323B2, “Chloroplast transit peptides” (priority 2015, dated 2019).

B1: TraP26::dgt-28: TraP26-dgt28 fusion gene (SEQ ID NO:27) in construct pDAB114286, expressed in T1 Arabidopsis (protein)
chain: MAQVSMIPNAIQAPCSISLSKSQAGKSVRKVSLKPNQHAAWGLRRSGMRVGNPEVVVSASARGMPALSLPGSKSITARALFLAAAADGVTTLVRPLRSDDTEGFAEGLVRLGYRVGRTPDTWQVDGRPQGPAVAEADVYCRDGATTARFLPTLAAAGHGTYRFDASPQMRRRPLLPLSRALRDLGVDLRHEEAEGHHPLTVRAAGVEGGEVTLDAGQSSQYLTALLLLGPLTRQGLRIRVTDLVSAPYVEITLAMMRAFGVEVAREGDVFVVPPGGYRATTYAIEPDASTASYFFAAAALTPGAEVTVPGLGTGALQGDLGFVDVLRRMGAEVSVGADATTVRGTGELRGLTANMRDISDTMPTLAAIAPFASAPVRIEDVANTRVKECDRLEACAENLRRLGVRVATGPDWIEIHPGPATGAQVTSYGDHRIVMSFAVTGLRVPGISFDDPGCVRKTFPGFHEAFAELRRGIGS
modifications: Trap26 DGT28 fusion coding sequence
B2: TraP27::dgt-28: TraP27-dgt28 fusion gene (SEQ ID NO:28) in construct pDAB114287, expressed in T1 Arabidopsis (protein)
chain: MATFTRVCHTARKSFVSLSNSQANSPVSVRFLSLPMPAARPAVKSGVRLWGCRLSFKVSASARGMPALSLPGSKSITARALFLAAAADGVTTLVRPLRSDDTEGFAEGLVRLGYRVGRTPDTWQVDGRPQGPAVAEADVYCRDGATTARFLPTLAAAGHGTYRFDASPQMRRRPLLPLSRALRDLGVDLRHEEAEGHHPLTVRAAGVEGGEVTLDAGQSSQYLTALLLLGPLTRQGLRIRVTDLVSAPYVEITLAMMRAFGVEVAREGDVFVVPPGGYRATTYAIEPDASTASYFFAAAALTPGAEVTVPGLGTGALQGDLGFVDVLRRMGAEVSVGADATTVRGTGELRGLTANMRDISDTMPTLAAIAPFASAPVRIEDVANTRVKECDRLEACAENLRRLGVRVATGPDWIEIHPGPATGAQVTSYGDHRIVMSFAVTGLRVPGISFDDPGCVRKTFPGFHEAFAELRRGIGS
modifications: Trap27 DGT28 fusion coding sequence

Legend:
[1] = system: Wildtype, non-transformed Arabidopsis thaliana c.v. Columbia; assay: Glyphosate response of non-transformed control Arabidopsis; type: in vivo; conditions: WT (non-transformed control), 14 days after application
Description: (§1) The Arabidopsis T1 transformants (from transformation with pDAB114286 or pDAB114287) were first selected from the background of untransformed seed using a glufosinate selection scheme. Three flats or 50,000 seed were analyzed for each T1 construct. The selected T1 plants were molecularly characterized (as described above) and events with a range of copy number were sprayed with various rates of commercial glyphosate.
(§2) Transgenic T1 Arabidopsis plants containing the dgt-28 transgene were sprayed with differing rates of glyphosate. Elevated rates were applied in this study to determine the relative levels of resistance (420, 840, 1,680 or 3,360 g ae/ha). The typical 1× field usage rate of glyphosate is 1120 g ae/ha. The response of these plants is presented in terms of % visual injury 2 weeks after treatment (WAT). The T1 Arabidopsis plants that were used in this study were of variable copy number for the dgt-28 transgene. The low copy dgt-28 T1 Arabidopsis plants were self-pollinated and used to produce T2 plants.
(§3) An arithmetic mean and standard deviation is presented for each construct used for Arabidopsis transformation. The range in individual response is also indicated in the last column for each rate and transformation. Wildtype, non-transformed Arabidopsis thaliana c.v. Columbia served as a glyphosate sensitive control.

[2] = system: dgt-28 transformed T1 Arabidopsis; assay: Glyphosate tolerance of dgt-28 transformed T1 Arabidopsis; type: in vivo, Arabidopsis thaliana; conditions: 14 days after application
Description: as §1, §2, §3

[3] = 420 g ae/ha glyphosate postemergence
[4] = 840 g ae/ha glyphosate postemergence
[5] = 1680 g ae/ha glyphosate postemergence
[6] = 3360 g ae/ha glyphosate postemergence

Row | Molecule | % Injury Analysis Ave [2, 3] [%] | % Injury Analysis Range (%) [2, 3] | % Injury Range (No. Replicates) 20-40% [2, 3] | % Injury Range (No. Replicates) <20% [2, 3] | % Injury Range (No. Replicates) >40% [2, 3] | % Injury Analysis Ave [2, 4] [%] | % Injury Analysis Range (%) [2, 4] | % Injury Range (No. Replicates) 20-40% [2, 4] | % Injury Range (No. Replicates) <20% [2, 4] | % Injury Range (No. Replicates) >40% [2, 4] | % Injury Analysis Ave [2, 5] [%] | % Injury Analysis Range (%) [2, 5] | % Injury Range (No. Replicates) 20-40% [2, 5] | % Injury Range (No. Replicates) <20% [2, 5] | % Injury Range (No. Replicates) >40% [2, 5] | % Injury Analysis Ave [2, 6] [%] | % Injury Analysis Range (%) [2, 6] | % Injury Range (No. Replicates) 20-40% [2, 6] | % Injury Range (No. Replicates) <20% [2, 6] | % Injury Range (No. Replicates) >40% [2, 6] | other results
1 | O=C(O)CNCP(=O)(O)O [glyphosate] |  |  |  |  |  |  |  |  |  |  |  |  |  |  |  |  |  |  |  |  | % Injury Analysis Ave ([1]; 420 g ae/ha postemergence): 100.0%; % Injury Analysis Range (%) ([1]; 420 g ae/ha postemergence): 100%; % Injury Range (No. Replicates) 20-40% ([1]; 420 g ae/ha postemergence): 0; % Injury Range (No. Replicates) <20% ([1]; 420 g ae/ha postemergence): 0; % Injury Range (No. Replicates) >40% ([1]; 420 g ae/ha postemergence): 4; % Injury Analysis Ave ([1]; 840 g ae/ha postemergence): 100.0%; % Injury Analysis Range (%) ([1]; 840 g ae/ha postemergence): 100%; % Injury Range (No. Replicates) 20-40% ([1]; 840 g ae/ha postemergence): 0; % Injury Range (No. Replicates) <20% ([1]; 840 g ae/ha postemergence): 0; % Injury Range (No. Replicates) >40% ([1]; 840 g ae/ha postemergence): 4; % Injury Analysis Ave ([1]; 1680 g ae/ha postemergence): 100.0%; % Injury Analysis Range (%) ([1]; 1680 g ae/ha postemergence): 100%; % Injury Range (No. Replicates) 20-40% ([1]; 1680 g ae/ha postemergence): 0; % Injury Range (No. Replicates) <20% ([1]; 1680 g ae/ha postemergence): 0; % Injury Range (No. Replicates) >40% ([1]; 1680 g ae/ha postemergence): 4; % Injury Analysis Ave ([1]; 3360 g ae/ha postemergence): 100.0%; % Injury Analysis Range (%) ([1]; 3360 g ae/ha postemergence): 100%; % Injury Range (No. Replicates) 20-40% ([1]; 3360 g ae/ha postemergence): 0; % Injury Range (No. Replicates) <20% ([1]; 3360 g ae/ha postemergence): 0; % Injury Range (No. Replicates) >40% ([1]; 3360 g ae/ha postemergence): 4
2 | B1 | 0.0 | 0% | 0 | 4 | 0 | 0.0 | 0% | 0 | 4 | 0 | 10.0 | 10% | 0 | 4 | 0 | 16.3 | 15-20% | 1 | 3 | 0 | 
3 | B2 | 19.0 | 10-30% | 1 | 3 | 0 | 15.8 | 10-20% | 1 | 3 | 0 | 18.8 | 15-20% | 3 | 1 | 0 | 25.0 | 25% | 4 | 0 | 0 | 
